According to US20150037332A1, “TREATMENT OF METASTIC BREAST CANCER” (GENENTECH, INC., priority 2008, published 2015):

Columns and labels:
[1] = test system: incurable, locally advanced, recurrent or metastatic solid tumors; settings: cited from earlier work
[2] = Previous pertuzumab studies, PK summary (two-compartment model); assay type: in vivo, human
Source text: (§1) Population PK modeling of data from Phase Ia and Phase II studies support the continued use of fixed, non-weight-based dosing in female patients.

[3] = test system: previously treated HER2-positive metastatic breast cancer; settings: in combination with trastuzumab; 11 patients enrolled; cited from earlier work
[4] = Phase II single-agent Study TOC2689g (ovarian cancer), serum pharmacokinetics; assay type: in vivo, human; settings: for CL, systemic clearance (mean ± SD) / Vc, volume of central compartment (mean ± SD) / Vss, steady-state volume of distribution (mean ± SD) / t1/2 initial, initial distribution half-life (mean ± SD) / t1/2 terminal, terminal half-life (mean ± SD): intravenous infusion, 2-compartment population PK model
Source text: (§2) Mean serum Cmin and Cmax for the first two cycles of treatment in ovarian and metastatic breast cancer (MBC) patients are presented in Table 3.
(§3) PK parameters were estimated using a two-compartment model (see Table 4).

[5] = cited from earlier work
[6] = Preliminary population PK analysis of Studies TOC2297g, TOC2689g and B016934; assay type: in vivo, human; settings: 153 patients, 1458 concentration-timepoints
[7] = Multi-dose intravenous toxicity and toxicokinetic studies (Studies 00-377-1821 and 01-458-1821), cardiac endpoints; assay type: in vivo; settings: 7-week and 26-week intravenous studies, cynomolgus monkeys
Protocol: In a 7-week intravenous toxicity and toxicokinetic study in cynomolgus monkeys with a 4-week recovery period (Study 00-377-1821), telemetry was measured in two animals per sex in the control and high-dose (150 mg/kg/dose) groups to collect electrocardiographic endpoints. At two timepoints before the initiation of treatment, and on Days 1 and 28, telemetered animals had systolic, diastolic, and mean arterial blood pressure, heart rate, PR interval, QRS, QT, and Lead II ECG data recorded. Four 1-minute tracings were collected for each animal from 2 to 22 hours after dosing and interpreted by a board-certified veterinary cardiologist. In addition to the routine serum chemistry parameters evaluated, serum was also analyzed for creatinine kinase isozymes and Troponin T on Study Days 2/3 and 44/45 for all animals. […] Recordings were taken at two timepoints before the initiation of treatment and once during Weeks 4, 16, and 26 on anesthetized animals and were interpreted by a board-certified veterinary cardiologist. In addition to the routine serum chemistry parameters evaluated, serum was also analyzed for Troponin T on Day 1 predose and on Days 114, 184, and 239 (recovery) for all animals.

[8] = Phase II single-agent studies TOC2689g and BO16934 taken together, serum pharmacokinetics; assay type: in vivo, human
Source text: as §1, §2, §3

[9] = Phase II single-agent Study BO16934 (metastatic breast cancer), serum pharmacokinetics; assay type: in vivo, human; settings: for CL, systemic clearance (mean ± SD) / Vc, volume of central compartment (mean ± SD) / Vss, steady-state volume of distribution (mean ± SD) / t1/2 initial, initial distribution half-life (mean ± SD) / t1/2 terminal, terminal half-life (mean ± SD): intravenous infusion, 2-compartment population PK model
Source text: as §2, §3

[10] = test system: non-small cell lung cancer (NSCLC) and breast cancer tumors (low and high HER2 expression levels); assay: Nonclinical dose-response xenograft studies; assay type: in vivo; settings: nude mice, NSCLC and breast cancer xenografts
[11] = Phase II study with gemcitabine in platinum-resistant ovarian cancer (TOC3258g), PK; assay type: in vivo, human
[12] = Phase Ib combination studies with capecitabine (BO17003) and docetaxel (BO17021), PK; assay type: in vivo, human
Source text: In both studies, the PK parameters for pertuzumab were similar to the PK parameters obtained in single-agent pertuzumab studies.

[13] = Clinical trials as of November 2006, torsades de pointes; assay type: in vivo, human; settings: pertuzumab-treated patients
[14] = Phase I, intravenously every 3 weeks
[15] = two-compartment model, typical patient
[16] = two-compartment model, Studies TOC2689g and BO16934

For “pertuzumab: antibody comprising the light and heavy chain amino acid sequences in SEQ ID NOs. 7 and 8; HER dimerization inhibitor binding HER2”, which confirmed partial responses [1, 14] is on record?
Its confirmed partial responses is “Two”.

What about the “tumor regression, patients evaluable for response” value [1, 14] of the same substance?
The value was 3 of 20.

What about the tolerability ([1]; given intravenously every 3 weeks) of the same substance?
Its tolerability is “generally well tolerated”.

And the “impact on the PK of co-administered chemotherapeutic agents” value ([2]; docetaxel and capecitabine in Phase Ib studies, gemcitabine in a Phase II study)?
The value was “no evidence that pertuzumab impacted the PK”.

What about the “change in clearance with dose” value ([2]; doses from 2.0 to 15.0 mg/kg) of the same substance?
Its value is “no change in clearance”.

What about the systemic serum clearance [2, 15] of the same substance?
The systemic serum clearance was “approximately 0.24 L/day”.

And the terminal half-life [2, 15]?
The terminal half-life was “approximately 17 days”.

And the “partial response (PR)” value [3]?
The value was “Two out of the 11”.

What about the “Cmax, mean peak serum concentration” value ([4]; 420 mg (n = 61), Cycle 1) of the same substance?
Its value is 231.7 µg/mL.

What about the “Cmin, mean (±SD) trough serum concentration” value ([4]; 420 mg (n = 61), Cycle 1) of the same substance?
Its value is 64.6 (±20.9) μg/mL.

What about the “Cmax, mean peak serum concentration” value ([4]; 420 mg (n = 61), Cycle 2) of the same substance?
The value was 237.6 µg/mL.

And the “Cmin, mean (±SD) trough serum concentration” value ([4]; 420 mg (n = 61), Cycle 2)?
The value was 66.5 (±38.0) μg/mL.

What about the “CL, systemic clearance (mean ± SD)” value ([4]; 420 mg (n = 61)) of the same substance?
The value was 0.244 ± 0.095 L/day.

And the “Vc, volume of central compartment (mean ± SD)” value (from here on “Vc, volume … (mean ± SD)”) ([4]; 420 mg (n = 61))?
Its value is 2.70 ± 0.39 L.

And the “Vss, steady-state volume of distribution (mean ± SD)” value (“Vss … (mean ± SD)” for short) ([4]; 420 mg (n = 61))?
Its value is 4.73 ± 0.78 L.

What about the “t1/2 initial, initial distribution half-life (mean ± SD)” value (“t1/2 initial … (mean ± SD)” below) ([4]; 420 mg (n = 61)) of the same substance?
The value was 1.37 ± 0.12 days.

And the “t1/2 terminal, terminal half-life (mean ± SD)” value (shortened to “t1/2 terminal … (mean ± SD)”) ([4]; 420 mg (n = 61))?
The value was 16.2 ± 4.7 days.

And the “Cmax, mean peak serum concentration” value ([4]; 1050 mg (n = 62), Cycle 1)?
Its value is 390.9 µg/mL.

And the “Cmin, mean (±SD) trough serum concentration” value ([4]; 1050 mg (n = 62), Cycle 1)?
The value was 90.1 (±68.1) μg/mL.

And the “Cmax, mean peak serum concentration” value ([4]; 1050 mg (n = 62), Cycle 2)?
The value was 357.2 µg/mL.

What about the “Cmin, mean (±SD) trough serum concentration” value ([4]; 1050 mg (n = 62), Cycle 2) of the same substance?
Its value is 94.7 (±47.3) μg/mL.

What about the “CL, systemic clearance (mean ± SD)” value ([4]; 1050 mg (n = 62)) of the same substance?
The value was 0.285 ± 0.119 L/day.

What about the “Vc, volume … (mean ± SD)” value ([4]; 1050 mg (n = 62)) of the same substance?
The value was 3.11 ± 0.72 L.

What about the “Vss … (mean ± SD)” value ([4]; 1050 mg (n = 62)) of the same substance?
The value was 5.39 ± 1.31 L.

What about the “t1/2 initial … (mean ± SD)” value ([4]; 1050 mg (n = 62)) of the same substance?
The value was 1.34 ± 0.11 days.

What about the “t1/2 terminal … (mean ± SD)” value ([4]; 1050 mg (n = 62)) of the same substance?
The value was 15.8 ± 5.2 days.

What about the antibodies to pertuzumab ([5]; Phase I patients) of the same substance?
Its antibodies to pertuzumab is “not detected”.

What about the linearity of pharmacokinetics ([5]; doses of 2.0-15 mg/kg) of the same substance?
The linearity of pharmacokinetics was “linear”.

What about the “population variability of steady-state trough concentration and exposure with fixed-dosing, body surface area-based dosing, and weight-based dosing” value [6] of the same substance?
Its value is “similar”.

What about the “ECGs, blood pressures, and heart rates” value [7] of the same substance?
Its value is “normal”.

What about the “cardiac injury caused by treatment, by histopathology” value [7] of the same substance?
The value was “no evidence of cardiac injury”.

What about the “serum chemistry parameters (Troponin T and creatine kinase isozymes)” value [7] of the same substance?
Its value is “lack of increases”.

What about the “steady-state serum Cmin” value ([8]; 840 mg loading dose, 420 mg maintenance dose every 3 weeks, by the second treatment cycle) of the same substance?
The value was “approximately 60 mg/mL”.

What about the “attainment of steady-state Cmin and Cmax” value ([8]; loading dose 840 mg followed by 420 mg every 3 weeks) of the same substance?
The value was “by the second cycle”.

And the “mean systemic clearance, range over dose groups” value [8, 16]?
Its value is 0.225 to 0.285 L/day.

And the “mean volume of distribution of the central compartment, range over dose groups” value [8, 16]?
Its value is 2.70 to 3.11 L.

What about the “Cmax, mean peak serum concentration” value ([9]; 420 mg (n = 40), Cycle 1) of the same substance?
The value was 202.9 µg/mL.

What about the “Cmin, mean (±SD) trough serum concentration” value ([9]; 420 mg (n = 40), Cycle 1) of the same substance?
Its value is 56.5 (±21.2) μg/mL.

And the “Cmax, mean peak serum concentration” value ([9]; 420 mg (n = 40), Cycle 2)?
The value was 181.2 µg/mL.

What about the “Cmin, mean (±SD) trough serum concentration” value ([9]; 420 mg (n = 40), Cycle 2) of the same substance?
The value was 62.6 (±21.1) μg/mL.

What about the “CL, systemic clearance (mean ± SD)” value ([9]; 420 mg (n = 40)) of the same substance?
Its value is 0.255 ± 0.096 L/day.

What about the “Vc, volume … (mean ± SD)” value ([9]; 420 mg (n = 40)) of the same substance?
Its value is 2.98 ± 0.67 L.

What about the “Vss … (mean ± SD)” value ([9]; 420 mg (n = 40)) of the same substance?
Its value is 5.12 ± 0.98 L.

And the “t1/2 initial … (mean ± SD)” value ([9]; 420 mg (n = 40))?
Its value is 1.36 ± 0.13 days.

What about the “t1/2 terminal … (mean ± SD)” value ([9]; 420 mg (n = 40)) of the same substance?
Its value is 16.3 ± 3.5 days.

And the “Cmax, mean peak serum concentration” value ([9]; 1050 mg (n = 35), Cycle 1)?
The value was 425.6 µg/mL.

What about the “Cmin, mean (±SD) trough serum concentration” value ([9]; 1050 mg (n = 35), Cycle 1) of the same substance?
The value was 75.9 (±34.5) μg/mL.

And the “Cmax, mean peak serum concentration” value ([9]; 1050 mg (n = 35), Cycle 2)?
Its value is 542.9 µg/mL.

What about the “Cmin, mean (±SD) trough serum concentration” value ([9]; 1050 mg (n = 35), Cycle 2) of the same substance?
Its value is 136.6 (±53.5) μg/mL.

And the “CL, systemic clearance (mean ± SD)” value ([9]; 1050 mg (n = 35))?
The value was 0.225 ± 0.121 L/day.

And the “Vc, volume … (mean ± SD)” value ([9]; 1050 mg (n = 35))?
Its value is 2.95 ± 0.81 L.

And the “Vss … (mean ± SD)” value ([9]; 1050 mg (n = 35))?
Its value is 5.11 ± 1.12 L.

And the “t1/2 initial … (mean ± SD)” value ([9]; 1050 mg (n = 35))?
Its value is 1.39 ± 0.15 days.

And the “t1/2 terminal … (mean ± SD)” value ([9]; 1050 mg (n = 35))?
Its value is 20.5 ± 8.1 days.

What about the “steady-state trough concentrations at which >80% suppression of tumor growth was achieved” value [10] of the same substance?
The value was 5 to 25 µg/mL.

And the “suppression of tumor growth” value ([10]; steady-state trough concentrations 5-25 μg/mL)?
The value was over 80%.

What about the “serum concentrations of pertuzumab compared with single-agent Phase II studies” value ([11]; in combination with gemcitabine) of the same substance?
Its value is “similar”.

What about the “effect on the PK of gemcitabine or its major metabolite, dFdU” value ([11]; preliminary PK analysis) of the same substance?
Its value is “does not alter the PK”.

What about the “effect on the PK of capecitabine and docetaxel” value ([12]; Phase Ib Studies BO17003 (capecitabine) and BO17021 (docetaxel)) of the same substance?
Its value is “does not alter the PK”.

What about the “PK parameters for pertuzumab compared with single-agent pertuzumab studies” value ([12]; in combination with capecitabine or docetaxel) of the same substance?
The value was “similar”.

What about the “association with an increase of TdP” value [13] of the same substance?
The value was “no association noted”.
